Laboratory results: patent publication US20240132589A1

Tests used:
[1] = molecular target: Human LILRB2 on transiently transfected HEK293-6E cells (human) (UniProt Q8N423); experiment: flow cytometry, transiently transfected HEK293-6E cells
[2] = molecular target: Human LILRB2 on stably transduced HEK293T cells (human) (UniProt Q8N423); experiment: flow cytometry competition on HEK293T-LILRB2 cells; blocking mAb 1 µg/mL; competitor: biotinylated B2Comp2
[3] = molecular target: Human LILRB2 on stably transduced HEK293T cells (human) (UniProt Q8N423); experiment: flow cytometry competition on HEK293T-LILRB2 cells; blocking mAb 10 µg/mL; competitor: biotinylated B2Comp1
[4] = molecular target: Human LILRB2 on stably transduced HEK293T cells (human) (UniProt Q8N423); experiment: flow cytometry competition on HEK293T-LILRB2 cells; blocking mAb 0.1 µg/mL; competitor: biotinylated B2Comp2
[5] = molecular target: Human LILRB2 on stably transduced HEK293T cells (human) (UniProt Q8N423); experiment: flow cytometry competition on HEK293T-LILRB2 cells; blocking mAb 0.1 µg/mL; competitor: biotinylated B2Comp1
[6] = molecular target: Human LILRB2 on stably transduced HEK293T cells (human) (UniProt Q8N423); experiment: flow cytometry competition on HEK293T-LILRB2 cells; blocking mAb 10 µg/mL; competitor: biotinylated B2Comp2
[7] = molecular target: Human LILRB2 on stably transduced HEK293T cells (human) (UniProt Q8N423); experiment: flow cytometry competition on HEK293T-LILRB2 cells; blocking mAb 1 µg/mL; competitor: biotinylated B2Comp1

Sequence of Human LILRB2 on stably transduced HEK293T cells (human) (Q8N423 other isoform, or with tags, fused parts or gaps limits assumed): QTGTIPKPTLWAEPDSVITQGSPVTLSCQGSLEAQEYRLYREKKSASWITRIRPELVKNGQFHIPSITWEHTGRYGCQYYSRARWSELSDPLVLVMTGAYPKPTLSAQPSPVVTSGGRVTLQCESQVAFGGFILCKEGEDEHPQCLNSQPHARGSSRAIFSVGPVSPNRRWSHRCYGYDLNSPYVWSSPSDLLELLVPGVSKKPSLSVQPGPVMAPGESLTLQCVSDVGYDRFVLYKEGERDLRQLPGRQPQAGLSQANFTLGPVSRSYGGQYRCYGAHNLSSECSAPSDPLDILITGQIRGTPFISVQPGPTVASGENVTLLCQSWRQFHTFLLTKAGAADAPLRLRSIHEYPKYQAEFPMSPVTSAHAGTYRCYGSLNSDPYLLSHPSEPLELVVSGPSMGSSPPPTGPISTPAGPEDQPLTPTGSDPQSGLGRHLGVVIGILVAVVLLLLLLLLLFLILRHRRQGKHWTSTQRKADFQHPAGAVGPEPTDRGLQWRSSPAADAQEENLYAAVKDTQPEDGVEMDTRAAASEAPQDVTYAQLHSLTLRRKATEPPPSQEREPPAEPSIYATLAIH
Sequence of Human LILRB2 on transiently transfected HEK293-6E cells (human) (Q8N423 22-597): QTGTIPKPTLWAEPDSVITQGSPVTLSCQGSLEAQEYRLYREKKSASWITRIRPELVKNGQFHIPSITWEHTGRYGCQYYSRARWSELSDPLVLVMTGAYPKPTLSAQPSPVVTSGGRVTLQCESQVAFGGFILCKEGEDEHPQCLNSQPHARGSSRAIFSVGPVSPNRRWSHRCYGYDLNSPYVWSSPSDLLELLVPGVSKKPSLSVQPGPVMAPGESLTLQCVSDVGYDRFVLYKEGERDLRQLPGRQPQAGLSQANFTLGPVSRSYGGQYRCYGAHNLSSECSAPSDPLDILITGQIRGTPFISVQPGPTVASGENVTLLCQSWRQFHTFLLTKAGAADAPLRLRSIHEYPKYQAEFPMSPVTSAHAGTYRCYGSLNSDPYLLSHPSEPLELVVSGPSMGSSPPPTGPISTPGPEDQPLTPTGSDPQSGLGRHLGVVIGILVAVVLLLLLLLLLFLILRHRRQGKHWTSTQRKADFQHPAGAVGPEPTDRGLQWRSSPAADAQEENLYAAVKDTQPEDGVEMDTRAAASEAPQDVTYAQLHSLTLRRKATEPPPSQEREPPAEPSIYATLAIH

Bmax (MFI) [1]: 9630 MFI
% Blocking of B2Comp2 Binding [2]: 97%
% Blocking of B2Comp1 Binding [3]: 80%
% Blocking of B2Comp2 Binding [4]: 44%
% Blocking of B2Comp1 Binding [5]: 47%
% Blocking of B2Comp2 Binding [6]: 100%
% Blocking of B2Comp1 Binding [7]: 78%
B1: B2Comp2 (antibody, IgG4, V domains shown)
VH: QITLKESGPTLVKPTQTLTLTCTFSGFSLNTYAMGVSWIRQPPGKALEWLASIWWNGNKYNNPSLKSRLTVTKDTSKNQVVLTMTNMDPVDTATYYCAHSRIIRFTDYVMDAWGQGTLVTVSS
VL: DIQMTQSPSSLSTSVGDRVTITCRASEDIYNDLAWYQQKPGKAPKLLIYNANSLHTGVASRFSGSGSGTDFTFTISSLQPEDVATYFCQQYYDYPLTFGQGTKLEIKR
modifications: Biotin-conjugated when used as the labelled ('hot') benchmark antibody in the binning assay. The site is not stated and is not carried by the letters.
